Data: paper PMC13290226, “Intraflagellar transport protein IFT172 contains a C-terminal ubiquitin-binding U-box-like domain involved in ciliary signaling” (eLife, 2026)

How the values were obtained:
Test in all cases: pull-down; GST-tagged HsIFT172 constructs (10 μM; 5 μM in Figure 4C) immobilised on GSH beads; prey 20 μM UbcH5a~Ub or 15-25 μM tetra-ubiquitin in 50 mM Tris pH 7.5, 100 mM NaCl, 1 mM DTT, 4 °C, 2 hr; eluted with glutathione; Coomassie and anti-ubiquitin western blot
Conditions in all cases: both partners purified
[1] = target: T1, UbcH5a_(C85S)~Ub conjugate (WT) (human, UniProt P51668 1-147; P0CG48 1-76, C85S, oxyester link from Ser85 (C85S) to ubiquitin | oxyester-linked to UbcH5a Ser85)
T1 construct: Homo sapiens UbcH5a (E2 enzyme), full length, active site cysteine mutated to serine; Homo sapiens ubiquitin; Protocol adapted from Middleton et al., 2014; also called WT UbcH5a~Ub conjugate; E2~Ub conjugate

[2] = target: T2, UbcH5a_(C85S)~Ub conjugate, UbcH5a F62A (human, UniProt P51668 1-147; P0CG48 1-76, C85S | F62A, oxyester link from Ser85 (C85S) to ubiquitin | oxyester-linked to UbcH5a Ser85)
T2 construct: Homo sapiens UbcH5a, full length, C85S and F62A; Homo sapiens ubiquitin; source: in vitro charging reaction of proteins purified from E. coli, purified

[3] = target: T3, UbcH5a_(C85S)~Ub conjugate, UbcH5a A96D (human, UniProt P51668 1-147; P0CG48 1-76, C85S | A96D, oxyester link from Ser85 (C85S) to ubiquitin | oxyester-linked to UbcH5a Ser85)
T3 construct: Homo sapiens UbcH5a, full length, C85S and A96D; Homo sapiens ubiquitin; source: in vitro charging reaction of proteins purified from E. coli, purified

binding result [1]: binds
binding result [2]: binds
binding result [3]: binds
B1: GST-tagged HsIFT172C2 (His-GST-TEV-HsIFT172_(1470-C)) (domain or fragment, human, UniProt Q9UG01 1470-1749, looked up)
chain: GAPANPQNFNIYKRIFTDMVSSPGTNCAEAYHSWADLRDVLFNLCENLVKSSEANSPAHEEFKTMLLIAHYYATRSAAQSVKQLETVAARLSVSLLRHTQLLPVDKAFYEAGIAAKAVGWDNMAFIFLNRFLDLTDAIEEGTLDGLDHSDFQDTDIPFEVPLPAKQHVPEAEREEVRDWVLTVSMDQRLEQVLPRDERGAYEASLVAASTGVRALPCLITGYPILRNKIEFKRPGKAANKDNWNKFLMAIKTSHSPVCQDVLKFISQWCGGLPSTSFSFQ
notes: also called GST-HsIFT172C2; source: E. coli BL21 (DE3), purified (Ni-NTA, Q anion exchange, SEC); not shown: GST, N-terminal, kept
